# Patent KR20220054080A (dated 2022)
# Substitutions are numbered along the chain they refer to.
# B1: SA3838 (antibody, V domains shown)
# VH: QVQLVESGAEVKKPGASVRVSCKISGYIFTELSIHWVRQAPGKGLEWMGGFDPEEGKTIYAQKFQGRVTMTEDTSTDTAYMELSSLRSEDTAVYYCAKIGHLGDFWYWGQGTLITVSS
# VL: QSALTQPASVSGSPGQSITISCTGTTSDIGSYDYVSWYQQHPGKAPKLIIYGVTRRPSGVSNRFSGSKSGNTASLTISRLLTEDEAEYYCATYTSSATYVFGTGTKVTVL
# B2: SA4118 (antibody, V domains shown)
# VH: B1 VH
# VL: B1 VL with R79G, L81Q, T82A, E87N, A91S, T92S, Y93C, S95R, A97S
# B3: SA3755 (antibody, V domains shown)
# VH: QMQLVESGGGVVQPGGSLRLSCAASGFTFDDHTMHWVRQAPGKGLEWVSLISWDGGSTYYADSVKGRFTISRDNSKNSLYLQMNSLRAEDTAVYYCTRDASRRPGDGGYDFDVWGQGTQVTVSS
# VL: QAVVTQEPSLTVSPGGTVTLTCGSSTGTVTRGHWPYWFQQKPGQAPRTLIYDTDNKHSWTPARFSGSLLGGKAALTLSGAQPEDEADYYCLLSYSDSRVFGTGTKVTVL
# B4: SA4079 (antibody, V domains shown)
# VH: B3 VH
# VL: B3 VL with V18A, N55T
# B5: SA3779 (antibody, V domains shown)
# VH: QVQLVESGGGVVQPGRSLRLSCAASGFTFSSYAMHWVRQAPGKGLEWVAVISYDGSNKYYADSAKGRFTISRDNSKNTLYLQMNSLRAEDTAVYYCARRGHYYDSSGYLYWGHGTLITVSS
# VL: DIQMTQSPSSLSASVGDRVTITCRASQRIATYLHWYQQKPGRAPKLLIYAASSLQTGVPSRFSGSGSGTDFTLTINSLQPEDFATYYCQQSYAIPYTFGQGTKLEIK
# B6: SA3827 (antibody, V domains shown)
# VH: B5 VH with G10T, V11L, A64V, Y108F, H113Q, I117V
# VL: DIQMTQSPSSLSASVGDRVTITCRASQSISTYLSWYQQKPGKAPKLLIYAASNLQSGVPSRFSASGSGTDFTLTISSLQPEDFATYYCQQSYNTPRTFGQGTKVEIK
# B7: SA4086 (antibody, V domains shown)
# VH: B5 VH
# VL: B6 VL
# B8: SA4114 (antibody, V domains shown)
# VH: B5 VH with G10T, V11L, A64V, Y108F, H113Q, I117V
# VL: DIQMTQSPSSLSASVGDRVTITCRAGQSIDNYLNWYQQKPGKAPKLLIYAASTLHSGVPSRFSGSGSGTDFTLTISSLQPDDFATYYCQQSYSIPRTFGQGTKLEIK
# Target: T1, SARS-CoV-2 RBD-mFc (SARS-CoV-2, UniProt P0DTC2 319-541)
# T1 construct: range 319-541
# Experiment: competition ELISA: RBD-mFc on coated ACE2-His
row,Binder,IC50
1,B1,1.62 nM
2,B2,0.709 nM
3,B3,5.71 nM
4,B4,3.62 nM
5,B5,7.96 nM
6,B6,0.321 nM
7,B7,1.24 nM
8,B8,0.364 nM

# Target: T2, SARS-CoV-2 spike protein on live SARS-CoV-2 virus (SARS-CoV-2, UniProt P0DTC2 14-1273)
# Experiment: cell-based or functional assay
row,Binder,"IC50, live SARS-CoV-2 미세중화분석, Vero 세포"
1,B1,9.4 nM
2,B3,8.74 nM
3,B5,56.8 nM
4,B6,8.92 nM

# Target: T3, SARS-CoV-2 스파이크 S1-mFc (SARS-CoV-2, UniProt P0DTC2 16-685)
# T3 construct: range 16-685
# Experiment: competition ELISA: S1-mFc on coated ACE2-His
row,Binder,IC50
1,B1,2.25 nM
2,B2,2.28 nM
3,B3,4.67 nM
4,B4,2.71 nM
5,B5,3.59 nM
6,B6,0.9 nM
7,B7,1.28 nM
8,B8,1.19 nM

# Target: T4, SARS-CoV-2 RBD-hFc (SARS-CoV-2, UniProt P0DTC2 319-541)
# Experiment: cell-based or functional assay
row,Binder,"IC50, 세포내 유입(internalization) 억제, HEK293E/ACE2-GFP"
1,B1,36.1 nM
2,B3,40 nM
3,B5,18.9 nM
4,B6,12.9 nM

# Target: T5, SARS-CoV 스파이크 [change] (#40150-V08B1, Sino Biological) (SARS-CoV, UniProt P59594 14-667)
# Experiment: ELISA, coated S1-His
row,Binder,binding result
1,B1,no binding (tested: 50 nM)
2,B3,no binding (tested: 50 nM)
3,B5,no binding (tested: 50 nM)
4,B6,no binding (tested: 50 nM)

# Target: T1, SARS-CoV-2 RBD-mFc
# Experiment: not given
row,Binder,IC50
1,B3,2.26 nM

# Target: T3, SARS-CoV-2 스파이크 S1-mFc
# Experiment: not given
row,Binder,IC50
1,B3,8.27 nM

# Target: T1, SARS-CoV-2 RBD-mFc
# Experiment: not given
# Remark: another data set of the same source
row,Binder,IC50
1,B3,23.1 nM

# Target: T1, SARS-CoV-2 RBD-mFc
# Experiment: competition ELISA: RBD-mFc on coated ACE2-His
# Remark: another data set of the same source
row,Binder,IC50
1,B1,2.2 nM
2,B3,7.74 nM
3,B5,11.2 nM
4,B6,0.914 nM

# Target: T1, SARS-CoV-2 RBD-mFc
# Experiment: Octet QKe BLI, 1:1 global fit
Binder,Kd,koff,kon
B3,1.06 nM,0.000424 s⁻¹,399000 M⁻¹ s⁻¹
B5,1.05 nM,0.000223 s⁻¹,213000 M⁻¹ s⁻¹
B6,0.452 nM,0.000173 s⁻¹,383000 M⁻¹ s⁻¹

# Target: T1, SARS-CoV-2 RBD-mFc
# Experiment: Octet QKe BLI, 1:1 global fit
# Remark: another data set of the same source
Binder,Kd,koff,kon
B2,0.0296 nM,2.05e-05 s⁻¹,695000 M⁻¹ s⁻¹
B4,0.154 nM,5.73e-05 s⁻¹,373000 M⁻¹ s⁻¹
B7,0.106 nM,4.99e-05 s⁻¹,471000 M⁻¹ s⁻¹
B8,0.0899 nM,3.89e-05 s⁻¹,433000 M⁻¹ s⁻¹

# Target: T1, SARS-CoV-2 RBD-mFc
# Experiment: flow cytometry competition: RBD-mFc on HEK293E/ACE2 cells
row,Binder,IC50
1,B1,3.38 nM
2,B3,3.8 nM
3,B5,2.84 nM
4,B6,2.74 nM

# Target: T4, SARS-CoV-2 RBD-hFc
# Experiment: cell-based or functional assay
# Remark: another data set of the same source
row,Binder,"IC50, 세포내 유입(internalization) 억제, HEK293E/ACE2-GFP"
1,B1,42.8 nM
2,B2,31.4 nM
3,B3,35.8 nM
4,B4,40 nM
5,B5,27.3 nM
6,B6,18.3 nM
7,B7,27.2 nM
8,B8,24.1 nM

# Target: T1, SARS-CoV-2 RBD-mFc
# Experiment: flow cytometry competition: RBD-mFc on HEK293E/ACE2 cells
# Remark: another data set of the same source
row,Binder,IC50
1,B1,2.99 nM
2,B2,2.71 nM
3,B3,3.09 nM
4,B4,2.35 nM
5,B5,2.65 nM
6,B6,2.71 nM
7,B7,2.47 nM
8,B8,2.39 nM

# Target: SARS-CoV RBD-His (#40150-V08B2, Sino Biological) (SARS-CoV, UniProt P59594 306-527)
# Experiment: ELISA, coated His-tagged antigen
row,Binder,binding result
1,B1,no binding
2,B2,no binding
3,B3,no binding
4,B4,no binding
5,B5,no binding
6,B6,no binding
7,B7,no binding
8,B8,no binding

# Target: T2, SARS-CoV-2 spike protein on live …
# Experiment: cell-based or functional assay
# Remark: another data set of the same source
row,Binder,"IC50, live SARS-CoV-2 미세중화분석, Vero 세포, 72시간"
1,B1,13.5 nM
2,B2,8.29 nM
3,B3,5.12 nM
4,B4,2.74 nM
5,B5,45.6 nM
6,B6,7.94 nM
7,B7,12.4 nM
8,B8,12.8 nM

# Target: T5, SARS-CoV 스파이크 [change] (#40150-V08B1, …)
# Experiment: ELISA, coated S1-His, as Example 5.2
row,Binder,binding result
1,B2,no binding
2,B4,no binding
3,B7,no binding
4,B8,no binding

# Target: T3, SARS-CoV-2 스파이크 S1-mFc
# Experiment: competition ELISA: S1-mFc on coated ACE2-His
# Remark: another data set of the same source
row,Binder,IC50
1,B1,1.2 nM
2,B3,4.06 nM
3,B5,4.03 nM
4,B6,0.61 nM
